*1 amine or outer side, *2 acyl side, *3 side chain or, on linkers, in order; H or OH if unused. Where no end group is shown, it is not given here. [ ]: non-standard residue; d: D form. Ala(piperidin-4-yl) = O=C([C@H](CC1CCN([*:3])CC1)N[*:1])[*:2]; Phe(4-guanidino) = N=C(N)Nc1ccc(C[C@H](N)C(=O)O)cc1; Phe(4-CF3) = N[C@@H](Cc1ccc(C(F)(F)F)cc1)C(=O)O
biological target: T1, PACE4 (UniProt P29122 150-969, limits assumed); assay: cell-based or functional assay
T1 sequence (looked up): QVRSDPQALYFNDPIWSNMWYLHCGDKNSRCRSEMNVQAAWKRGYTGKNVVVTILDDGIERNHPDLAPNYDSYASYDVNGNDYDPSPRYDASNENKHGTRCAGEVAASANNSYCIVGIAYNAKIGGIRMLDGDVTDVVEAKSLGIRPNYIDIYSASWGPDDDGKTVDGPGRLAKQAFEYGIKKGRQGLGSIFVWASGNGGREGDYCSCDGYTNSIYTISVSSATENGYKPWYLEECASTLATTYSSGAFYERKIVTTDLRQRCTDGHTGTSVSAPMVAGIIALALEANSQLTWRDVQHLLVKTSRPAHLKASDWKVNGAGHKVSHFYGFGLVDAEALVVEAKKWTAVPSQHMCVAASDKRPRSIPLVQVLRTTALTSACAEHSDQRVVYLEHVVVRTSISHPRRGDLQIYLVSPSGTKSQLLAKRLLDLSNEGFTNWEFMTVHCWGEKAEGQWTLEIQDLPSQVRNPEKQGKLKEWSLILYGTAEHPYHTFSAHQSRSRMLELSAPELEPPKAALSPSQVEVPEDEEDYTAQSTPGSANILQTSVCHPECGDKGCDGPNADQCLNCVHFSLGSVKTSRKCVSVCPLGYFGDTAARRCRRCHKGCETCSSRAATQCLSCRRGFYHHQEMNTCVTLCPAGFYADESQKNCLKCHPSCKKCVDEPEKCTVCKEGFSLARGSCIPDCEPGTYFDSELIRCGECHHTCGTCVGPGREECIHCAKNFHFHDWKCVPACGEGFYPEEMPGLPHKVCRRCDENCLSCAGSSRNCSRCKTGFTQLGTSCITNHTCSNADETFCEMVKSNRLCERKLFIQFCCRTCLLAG

Binder	IC50 (µM), PACE4 enzyme inhibition, fluorogenic substrate pyroGlu-Arg-Val-Lys-Arg-methyl-coumaryl-7-amide [µM]
Ac-RR[Ala(piperidin-4-yl)]KR[dT]-NH2 (SMILES CC(=O)N[C@@H](CCCNC(=N)N)C(=O)N[C@@H](CCCNC(=N)N)C(=O)N[C@@H](CC1CCNCC1)C(=O)N[C@@H](CCCCN)C(=O)N[C@@H](CCCNC(=N)N)C(=O)N[C@@H](C(N)=O)[C@H](C)O) [Ac-R-R-A(4-Pip)-K-R-dT-NH2]	0.09
P[dR]R[Phe(4-CF3)]KR[dT]-NH2 (N-terminus assumed; SMILES C[C@H](O)[C@@H](NC(=O)[C@H](CCCNC(=N)N)NC(=O)[C@H](CCCCN)NC(=O)[C@H](Cc1ccc(C(F)(F)F)cc1)NC(=O)[C@H](CCCNC(=N)N)NC(=O)[C@@H](CCCNC(=N)N)NC(=O)[C@@H]1CCCN1)C(N)=O) [P-dR-R-F(4-CF3)-K-R-dT-NH2]	0.02
Ac-R[Ala(piperidin-4-yl)]KRT-NH2 (SMILES CC(=O)N[C@@H](CCCNC(=N)N)C(=O)N[C@@H](CC1CCNCC1)C(=O)N[C@@H](CCCCN)C(=O)N[C@@H](CCCNC(=N)N)C(=O)N[C@H](C(N)=O)[C@@H](C)O) [Ac-R-A(4-Pip)-K-R-T-NH2]	0.3
P[dR]R[Phe(4-guanidino)]KR[dT]-NH2 (N-terminus assumed; SMILES C[C@H](O)[C@@H](NC(=O)[C@H](CCCNC(=N)N)NC(=O)[C@H](CCCCN)NC(=O)[C@H](Cc1ccc(NC(=N)N)cc1)NC(=O)[C@H](CCCNC(=N)N)NC(=O)[C@@H](CCCNC(=N)N)NC(=O)[C@@H]1CCCN1)C(N)=O) [P-dR-R-F(4-Guan)-K-R-dT-NH2]	0.025
Ac-R[Phe(4-guanidino)]KRT-NH2 (SMILES CC(=O)N[C@@H](CCCNC(=N)N)C(=O)N[C@@H](Cc1ccc(NC(=N)N)cc1)C(=O)N[C@@H](CCCCN)C(=O)N[C@@H](CCCNC(=N)N)C(=O)N[C@H](C(N)=O)[C@@H](C)O) [Ac-R-F(4-Guan)-K-R-T-NH2]	0.023
[dP][dR]R[Ala(piperidin-4-yl)]KR[dT]-NH2 (N-terminus assumed; SMILES C[C@H](O)[C@@H](NC(=O)[C@H](CCCNC(=N)N)NC(=O)[C@H](CCCCN)NC(=O)[C@H](CC1CCNCC1)NC(=O)[C@H](CCCNC(=N)N)NC(=O)[C@@H](CCCNC(=N)N)NC(=O)[C@H]1CCCN1)C(N)=O) [dP-dR-R-A(4-Pip)-K-R-dT-NH2]	0.08
[dP][dR]R[Phe(4-CF3)]KR[dT]-NH2 (N-terminus assumed; SMILES C[C@H](O)[C@@H](NC(=O)[C@H](CCCNC(=N)N)NC(=O)[C@H](CCCCN)NC(=O)[C@H](Cc1ccc(C(F)(F)F)cc1)NC(=O)[C@H](CCCNC(=N)N)NC(=O)[C@@H](CCCNC(=N)N)NC(=O)[C@H]1CCCN1)C(N)=O) [dP-dR-R-F(4-CF3)-K-R-dT-NH2]	0.02
[dP][dR]R[Phe(4-guanidino)]KR[dT]-NH2 (N-terminus assumed; SMILES C[C@H](O)[C@@H](NC(=O)[C@H](CCCNC(=N)N)NC(=O)[C@H](CCCCN)NC(=O)[C@H](Cc1ccc(NC(=N)N)cc1)NC(=O)[C@H](CCCNC(=N)N)NC(=O)[C@@H](CCCNC(=N)N)NC(=O)[C@H]1CCCN1)C(N)=O) [dP-dR-R-F(4-Guan)-K-R-dT-NH2]	0.034
Ac-[dR]R[Ala(piperidin-4-yl)]KR[dT]-NH2 (SMILES CC(=O)N[C@H](CCCNC(=N)N)C(=O)N[C@@H](CCCNC(=N)N)C(=O)N[C@@H](CC1CCNCC1)C(=O)N[C@@H](CCCCN)C(=O)N[C@@H](CCCNC(=N)N)C(=O)N[C@@H](C(N)=O)[C@H](C)O) [Ac-dR-R-A(4-Pip)-K-R-dT-NH2]	0.12
Ac-RFKRT-NH2 [Ac-R-F-K-R-T-NH2]	2
P[dR]R[Ala(piperidin-4-yl)]KR[dT]-NH2 (N-terminus assumed; SMILES C[C@H](O)[C@@H](NC(=O)[C@H](CCCNC(=N)N)NC(=O)[C@H](CCCCN)NC(=O)[C@H](CC1CCNCC1)NC(=O)[C@H](CCCNC(=N)N)NC(=O)[C@@H](CCCNC(=N)N)NC(=O)[C@@H]1CCCN1)C(N)=O) [P-dR-R-A(4-Pip)-K-R-dT-NH2]	0.07
Ac-[dR]R[Phe(4-CF3)]KR[dT]-NH2 (SMILES CC(=O)N[C@H](CCCNC(=N)N)C(=O)N[C@@H](CCCNC(=N)N)C(=O)N[C@@H](Cc1ccc(C(F)(F)F)cc1)C(=O)N[C@@H](CCCCN)C(=O)N[C@@H](CCCNC(=N)N)C(=O)N[C@@H](C(N)=O)[C@H](C)O) [Ac-dR-R-F(4-CF3)-K-R-dT-NH2]	0.04
Ac-RR[Phe(4-guanidino)]KR[dT]-NH2 (SMILES CC(=O)N[C@@H](CCCNC(=N)N)C(=O)N[C@@H](CCCNC(=N)N)C(=O)N[C@@H](Cc1ccc(NC(=N)N)cc1)C(=O)N[C@@H](CCCCN)C(=O)N[C@@H](CCCNC(=N)N)C(=O)N[C@@H](C(N)=O)[C@H](C)O) [Ac-R-R-F(4-Guan)-K-R-dT-NH2]	0.018
Ac-[dR]RFKR[dT]-NH2 (SMILES CC(=O)N[C@H](CCCNC(=N)N)C(=O)N[C@@H](CCCNC(=N)N)C(=O)N[C@@H](Cc1ccccc1)C(=O)N[C@@H](CCCCN)C(=O)N[C@@H](CCCNC(=N)N)C(=O)N[C@@H](C(N)=O)[C@H](C)O) [Ac-dR-R-F-K-R-dT-NH2]	0.19
Ac-RRFKR[dT]-NH2 (SMILES CC(=O)N[C@@H](CCCNC(=N)N)C(=O)N[C@@H](CCCNC(=N)N)C(=O)N[C@@H](Cc1ccccc1)C(=O)N[C@@H](CCCCN)C(=O)N[C@@H](CCCNC(=N)N)C(=O)N[C@@H](C(N)=O)[C@H](C)O) [Ac-R-R-F-K-R-dT-NH2]	0.46
Ac-RR[Phe(4-CF3)]KR[dT]-NH2 (SMILES CC(=O)N[C@@H](CCCNC(=N)N)C(=O)N[C@@H](CCCNC(=N)N)C(=O)N[C@@H](Cc1ccc(C(F)(F)F)cc1)C(=O)N[C@@H](CCCCN)C(=O)N[C@@H](CCCNC(=N)N)C(=O)N[C@@H](C(N)=O)[C@H](C)O) [Ac-R-R-F(4-CF3)-K-R-dT-NH2]	0.09
Ac-RFKR-NH2 [Ac-R-F-K-R-NH2]	12.7
Ac-RFKR[dT]-NH2 (SMILES CC(=O)N[C@@H](CCCNC(=N)N)C(=O)N[C@@H](Cc1ccccc1)C(=O)N[C@@H](CCCCN)C(=O)N[C@@H](CCCNC(=N)N)C(=O)N[C@@H](C(N)=O)[C@H](C)O) [Ac-R-F-K-R-dT-NH2]	5
Ac-R[Ala(piperidin-4-yl)]KR[dT]-NH2 (SMILES CC(=O)N[C@@H](CCCNC(=N)N)C(=O)N[C@@H](CC1CCNCC1)C(=O)N[C@@H](CCCCN)C(=O)N[C@@H](CCCNC(=N)N)C(=O)N[C@@H](C(N)=O)[C@H](C)O) [Ac-R-A(4-Pip)-K-R-dT-NH2]	0.1
Ac-[dR]R[Phe(4-guanidino)]KR[dT]-NH2 (SMILES CC(=O)N[C@H](CCCNC(=N)N)C(=O)N[C@@H](CCCNC(=N)N)C(=O)N[C@@H](Cc1ccc(NC(=N)N)cc1)C(=O)N[C@@H](CCCCN)C(=O)N[C@@H](CCCNC(=N)N)C(=O)N[C@@H](C(N)=O)[C@H](C)O) [Ac-dR-R-F(4-Guan)-K-R-dT-NH2]	0.015
Ac-R[Phe(4-guanidino)]KR[dT]-NH2 (SMILES CC(=O)N[C@@H](CCCNC(=N)N)C(=O)N[C@@H](Cc1ccc(NC(=N)N)cc1)C(=O)N[C@@H](CCCCN)C(=O)N[C@@H](CCCNC(=N)N)C(=O)N[C@@H](C(N)=O)[C@H](C)O) [Ac-R-F(4-Guan)-K-R-dT-NH2]	0.021

Reference: EP4789680A1, “NOVEL PACE4 INHIBITOR AND USE THEREOF IN ANTI-OSTEOARTHRITIS” (Inflamax Pharmaceuticals Limited, priority 2023, dated 2025)
